Measurements from the supplement of paper PMC12042874.
± gives the uncertainty stated by the source.

Assay: amyloid nucleation score (Sup35N fusion, yeast selection) (log enrichment); library NNK2; higher = more nucleation; inactive = no reads after selection
Outline: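 For the nucleation score, DiMSum gave the log enrichment of output over input reads, centred on the mode score of non-aggregating sequences. Psi-negative yeast expressing Sup35N fused to peptides of 20 random codons were induced with 100 μM copper sulfate for 24 hours and grown 7 days at 30°C on medium lacking adenine and uracil. Input and output plasmid inserts were Illumina-sequenced, and sequences with under 100 input reads were excluded.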
With MFCRTRALSRTGPTGQLLRV the amyloid nucleation score was 3.56 ± 0.13. Work on MFDFCPIMTLF yielded an amyloid nucleation score of -0.771 ± 1.1. Substance MFGNTGLTSYYALTGTRWLY has an amyloid nucleation score of -0.487 ± 0.79. In the case of MFHCSSKACLPVVDVGVVVC, the amyloid nucleation score is reported as 0.96 ± 0.29. With MFHLRSNVMPTGLVRTPMLL the amyloid nucleation score was 1.54 ± 0.44. MFIMFIAVSFVGRMYGGHRH gave an amyloid nucleation score of -0.44 ± 0.26. For MFVCYSRYIASEREPAACPI, the amyloid nucleation score was “inactive”. Substance MFVHLGGTWMQR has an amyloid nucleation score of 5.135 ± 0.046. MFWKTWGVNCQATNRMEIRL showed an amyloid nucleation score of 2.99 ± 0.055. MFWRITGAI gave an amyloid nucleation score of 0.402 ± 0.34. With MGARSIRDRSSVGK the amyloid nucleation score was -0.464 ± 1.1. In the case of MGLNYLKQQAARYDEGGPS, the amyloid nucleation score is reported as 1.5 ± 0.42. MGLTEEVIKWQGHVGWTWAG showed an amyloid nucleation score of 1.55 ± 0.29. Substance MGMAHFDSQPLGYILGASMC has an amyloid nucleation score of -0.727 ± 0.79. With MGMLFMFVITKKSLVQDSLY the amyloid nucleation score was 2.64 ± 0.19. Substance MGPDMYVCKVWLGAVAYEMG has an amyloid nucleation score of 1.95 ± 0.4. Substance MGSAS has an amyloid nucleation score of 0.682 ± 0.34. MGVLWMFFSF showed an amyloid nucleation score of 0.03 ± 0.4. In the case of MGVSNIDIVSRILNPGAAAS, the amyloid nucleation score is reported as 1.36 ± 0.41. With MHHIFYVGNLSW the amyloid nucleation score was “inactive”. In the case of MHHQSSAFNQGHASPYLSWK, the amyloid nucleation score is reported as 0.741 ± 0.39. With MHKAFWPNLALFVMNGYGGV the amyloid nucleation score was 0.304 ± 0.42. MHLCADPAGFWDWN gave an amyloid nucleation score of -0.446 ± 1. Work on MHQSQVMSLSDPAAGKSFWV yielded an amyloid nucleation score of -0.56 ± 0.79. MIDLTLIFLFLVYSD showed an amyloid nucleation score of -0.827 ± 0.62. MIHYRWTHYNTRIGGYRYWE showed an amyloid nucleation score of 3.54 ± 0.05. MIMHNVANDWTVFYFLCRVV showed an amyloid nucleation score of -0.723 ± 0.55. MIVMLESLRRTTSQP showed an amyloid nucleation score of 1.69 ± 0.21. In the case of MIWGVT, the amyloid nucleation score is reported as 1.01 ± 0.4. MKRIRLGNQVRCEAANCRGR gave an amyloid nucleation score of 1.1 ± 0.24. In the case of MLARFSSHVPGTDVNPIGRQ, the amyloid nucleation score is reported as 0.317 ± 0.5. For MLELSATMSVHVQRLNASGH, the amyloid nucleation score was 9.009 ± 0.068. MLLIRGHILIPGADLTIIPE showed an amyloid nucleation score of -0.692 ± 0.56. For MLMSNFCF, the amyloid nucleation score was -0.077 ± 0.74. MLSRNNCNALWYSIFS gave an amyloid nucleation score of -1.5 ± 1. MLSTTEVCVGPDRD showed an amyloid nucleation score of 3.89 ± 0.088. In the case of MLVCRWNACSVVLSVSGLAR, the amyloid nucleation score is reported as 0.718 ± 0.21. With MLVNRFGGVA the amyloid nucleation score was -0.402 ± 0.38. Work on MLVVLMFSLSDSI yielded an amyloid nucleation score of 1.67 ± 0.1. With MMFNSLCSYWTTDYFATPDL the amyloid nucleation score was 6.778 ± 0.062. MMGRTTWMDIKIYWENQCAE gave an amyloid nucleation score of -0.176 ± 1.1. Work on MMNTMLHGIVVMNFSWVASW yielded an amyloid nucleation score of 4.26 ± 0.053. With MMSEVLKDVSCHFIPLGGQV the amyloid nucleation score was -0.694 ± 0.48. Substance MNFCGNRCPFSLYIPWTACV has an amyloid nucleation score of -0.664 ± 1.1. MNGVLFMCFIH gave an amyloid nucleation score of 3.86 ± 0.085. For MNIYEVSKYENGY, the amyloid nucleation score was 3 ± 0.071. With MNKNYFSGLPGGSVCYSVEY the amyloid nucleation score was -0.732 ± 0.38. MNLAVGWSHSPDQDLYYPML showed an amyloid nucleation score of -0.339 ± 0.56. With MPGQFHFVMNFRINRNYIRS the amyloid nucleation score was 5.92 ± 0.067. For MPPGCRMIFALIVVVIQFNF, the amyloid nucleation score was 0.04 ± 0.76. With MPQSSRFCTNSFGNRHRRSW the amyloid nucleation score was -0.343 ± 1.1. For MPTIRNWVCW, the amyloid nucleation score was 0.639 ± 0.47. MQISKQTFPHNWVVYRSDYG gave an amyloid nucleation score of -0.776 ± 1.1. MQKRRDSKYEYLVFGCDVCM gave an amyloid nucleation score of -1.13 ± 1.1. For MQYCLGFDLNLRNYICHPGR, the amyloid nucleation score was 7.303 ± 0.063. In the case of MRGAYLRFRSMCAGAAGKCD, the amyloid nucleation score is reported as “inactive”. MRGGLGV showed an amyloid nucleation score of 0.492 ± 0.49. For MRLLILDPYAREQ, the amyloid nucleation score was “inactive”. For MRTKGIRQADVFCESYRFNT, the amyloid nucleation score was -0.029 ± 0.65. In the case of MSGVSAVLRDLFKYVELIIR, the amyloid nucleation score is reported as “inactive”. MSPLH gave an amyloid nucleation score of -0.181 ± 0.39. Substance MSPNLIMMHHCH has an amyloid nucleation score of 0.094 ± 0.41. For MSSRTHLARRHPVMDVCCSR, the amyloid nucleation score was 6.639 ± 0.036. Work on MSWIGCYYYFNAQQHNSG yielded an amyloid nucleation score of 9.318 ± 0.052. MSYAYKVRSCCVMFMMFRSW gave an amyloid nucleation score of -0.336 ± 0.54. For MSYCNT, the amyloid nucleation score was 1.77 ± 0.11. MTCCF showed an amyloid nucleation score of -0.877 ± 1.1. MTFNVFRNQALRPNCCKPNG showed an amyloid nucleation score of 3.09 ± 0.18. With MTLMKDCDMNISHSARAKAS the amyloid nucleation score was 0.255 ± 0.18. Work on MTRNGDLFS yielded an amyloid nucleation score of 0.657 ± 0.4. In the case of MTYYRAYFAYLWVVRLWL, the amyloid nucleation score is reported as 0.029 ± 0.32. In the case of MVCVELFWFARLSLPGA, the amyloid nucleation score is reported as 0.246 ± 1.1. In the case of MVDKNNAKINHSR, the amyloid nucleation score is reported as “inactive”. For MVHHGGCAWMSSACTCNVHC, the amyloid nucleation score was 0.313 ± 0.27. For MVIGNLGLLLEGLRVEYLNH, the amyloid nucleation score was “inactive”. For MVKSHLMTKFCD, the amyloid nucleation score was -0.394 ± 0.34. Work on MVLNIDCFCDFYLALSCMSI yielded an amyloid nucleation score of 5.58 ± 0.079. In the case of MVLRKLTYILPTRLLGQRFL, the amyloid nucleation score is reported as “inactive”. Work on MVLVMCPLS yielded an amyloid nucleation score of 0.015 ± 0.25. With MVRVYSVCDKDHQMYNHFFR the amyloid nucleation score was 0.67 ± 0.44. In the case of MVSGRPTVYKTSSLQTASAN, the amyloid nucleation score is reported as -0.14 ± 0.65. For MVYELRRFRCLFITVSGVDS, the amyloid nucleation score was “inactive”. Substance MWINHDPGWRCYYLYFPFL has an amyloid nucleation score of 3.59 ± 0.074. Substance MYCETLRRSILMVNMNPRNP has an amyloid nucleation score of -0.114 ± 0.31. With MYEGGSTLW the amyloid nucleation score was -0.441 ± 0.45.
